In patent EP4707298A2 (INSTITUTO BUTANTAN, dated 2026):

What was measured:
[1] = target: T1, rFGF2 antigen (recombinant fibroblast growth factor 2) (UniProt P09038 143-288, limits assumed); assay: SPR kinetic affinity assay
T1 construct: also called FGF2 protein

[2] = target: rFGF2 antigen (recombinant fibroblast growth factor 2) (UniProt P09038); assay: SPR kinetic affinity assay
Chain of rFGF2 antigen (recombinant fibroblast growth factor 2) (UniProt P09038) (P09038 143-288 limits assumed): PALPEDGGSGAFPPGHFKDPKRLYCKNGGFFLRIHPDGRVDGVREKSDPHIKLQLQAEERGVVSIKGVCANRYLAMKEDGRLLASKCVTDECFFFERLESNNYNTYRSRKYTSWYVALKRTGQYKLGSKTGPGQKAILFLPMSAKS

T1 sequence (P09038 143-288 limits assumed): as above

Kd [1] [nM]	koff [1] [s⁻¹]	kon [1] [M⁻¹ s⁻¹]	Kd [2] [nM]	koff [2] [s⁻¹]	kon [2] [M⁻¹ s⁻¹]	Binder
17	0.000834	49200	–	–	–	human anti-FGF2 antibody 85L117H (antibody, human IgG1, V domains shown, Human IgG1 format (AbVec vectors with human gamma1 HC and lambda LC constant regions)) VH: QVQLVQSGAELKRPGSSVKVSCRASGDTFKNYAITWVRQAPGQGLEWVGGIDPLVGVPNYTHRFQGRVTITADEPTSTTYMEFRDLTSDDTAVYYCARGVRDQHWSYFDSWGQGTLVTVSS VL: QSVLTQPPSASGTPGQTVNISCSGATSNIGGGSVNWYQQLPGAAPRLLIHSDNERASGVPDRFSGSKSGTSASLAISGLQSEDEADYFCASWDDSLDGHVVFGGGTKVTVL
–	–	–	8.53	0.00326	382000	human anti-FGF2 antibody 32L98H (antibody, part only; not given: light chain 32L, human IgG1, V domains shown, part only) VH: QITLKESGPTLVKPTQTLTLTCTFSGFSLSTSGVGVGWIRQPPGEALEWLAVIHWNEANYYSPYLRSRLTITKDTSKNQMVLTVTNMDPVDTATYYCARGANSDSSGRLDAFDIWGQGTMVTVSS
9.1	0.00156	171000	–	–	–	human anti-FGF2 antibody 62K98H (antibody, human IgG1, V domains shown, Human IgG1 format (AbVec vectors with human gamma1 HC and kappa LC constant regions)) VH: QITLKESGPTLVKPTQTLTLTCTFSGFSLSTSGVGVGWIRQPPGEALEWLAVIHWNEANYYSPYLRSRLTITKDTSKNQMVLTVTNMDPVDTATYYCARGANSDSSGRLDAFDIWGQGTMVTVSS VL: DVVMTQSPLSLPVTLGQPASISCRSSQSLIYSDGNTRLYWFHQRPGQSPRRLIYGVSNRDSGVPDRFSGSGSGTDFTLKISRVEAEDVGVYYCMQSTHWPHTFGQGTKLEIK
